Data taken from US11833164B2, “Methods of treating Fabry disease in patients having a mutation in the GLA gene” (Amicus Therapeutics, Inc., priority 2019, dated 2023).
Changes are numbered by the printed parent chain. In names and notes the source's numbering stands.

B1: A135G (protein)
chain: MQLRNPELHLGCALALRFLALVSWDIPGARALDNGLARTPTMGWLHWERFMCNLDCQEEPDSCISEKLFMEMAELMVSEGWKDAGYEYLCIDDCWMAPQRDSEGRLQADPQRFPHGIRQLANYVHSKGLKLGIYGDVGNKTCAGFPGSFGYYDIDAQTFADWGVDLLKFDGCYCDSLENLADGYKHMSLALNRTGRSIVYSCEWPLYMWPFQKPNYTEIRQYCNHWRNFADIDDSWKSIKSILDWTSFNQERIVDVAGPGGWNDPDMLVIGNFGLSWNQQVTQMALWAIMAAPLFMSNDLRHISPQAKALLQDKDVIAINQDPLGKQGYQLRQGDNFEVWERPLSGLAWAVAMINRQEIGGPRSYTIAVASLGKGVACNPACFITQLLPVKRKLGFYEWTSRLRSHINPTGTVLLQLENTMQMSLKDLL
B2: A135S (protein)
chain: B1 chain with G135S
B3: N139K (protein)
chain: B1 chain with G135A, N139K
B4: K140E (protein)
chain: B1 chain with G135A, K140E
B5: V137I (protein)
chain: B1 chain with G135A, V137I
B6: N139H (protein)
chain: B1 chain with G135A, N139H
B7: N139I (protein)
chain: B1 chain with G135A, N139I
B8: V137D (protein)
chain: B1 chain with G135A, V137D
B9: A135T (protein)
chain: B1 chain with G135T
B10: D136A (protein)
chain: B1 chain with G135A, D136A
B11: V137L (protein)
chain: B1 chain with G135A, V137L
B12: V137A (protein)
chain: B1 chain with G135A, V137A
B13: K140N (protein)
chain: B1 chain with G135A, K140N
B14: V137G (protein)
chain: B1 chain with G135A, V137G
B15: N139Y (protein)
chain: B1 chain with G135A, N139Y
B16: D136N (protein)
chain: B1 chain with G135A, D136N
B17: D136V (protein)
chain: B1 chain with G135A, D136V
B18: K140R (protein)
chain: B1 chain with G135A, K140R
B19: G138A (protein)
chain: B1 chain with G135A, G138A
B20: K140I (protein)
chain: B1 chain with G135A, K140I
B21: K140Q (protein)
chain: B1 chain with G135A, K140Q

System: mutant form of α-Gal A expressed in HEK-293 cells
Experiment: HEK assay (GLP HEK / Migalastat Amenability Assay): α-Gal A activity in lysates of transiently transfected HEK-293 cells incubated with or without 10 μM migalastat
Format: cell-based, human
Settings: for Absolute increase (% WT): 10 μM migalastat versus baseline; for Relative increase: 10 μM migalastat α-Gal A activity relative to baseline; for 10 μM migalastat α-Gal A activity (% WT): 5 days; for 10 μM migalastat α-Gal A activity (% WT) / Baseline α-Gal A activity (% WT): percentage of baseline wild-type α-Gal A activity; for 10 μM migalastat α-Gal A activity (% WT) / Baseline α-Gal A activity (% WT) / Baseline α-Gal A activity / 10 μM migalastat α-Gal A activity: mean ± SEM; for Baseline α-Gal A activity (% WT): absence of migalastat; for Baseline α-Gal A activity / 10 μM migalastat α-Gal A activity: lysates of HEK-293 cells transfected with the mutant form; for Baseline α-Gal A activity: incubated 5 days in the absence of migalastat; for 10 μM migalastat α-Gal A activity: incubated 5 days with 10 μM migalastat
Method in brief: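 Activity reported as 4-MU released (nmol/mg/hr), mean±SEM, from lysates of transiently transfected HEK-293 cells expressing mutant α-Gal A, cultured with or without 10 μM migalastat.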

Molecule | Absolute increase (% WT) | Relative increase | 10 μM migalastat α-Gal A activity (% WT) | Baseline α-Gal A activity (% WT) | Baseline α-Gal A activity [nmol/mg/h] | 10 μM migalastat α-Gal A activity [nmol/mg/h]
B1 | 16.1 | 1.2 | 90 ± 3.6 | 73.9 ± 3.8 | 29959 ± 2193 | 36552 ± 2309
B2 | 12.2 | 1.3 | 57.9 ± 3.2 | 45.6 ± 2.9 | 16777 ± 897 | 21383 ± 1125
B3 | 33.8 | 1.3 | 127.4 ± 8.8 | 93.6 ± 5.8 | 33797 ± 2244 | 45090 ± 2667
B4 | 59.5 | 1.8 | 132.1 ± 9 | 72.6 ± 5.8 | 26053 ± 1925 | 46670 ± 2685
B5 | 24.7 | 1.8 | 57.4 ± 2.5 | 32.8 ± 1.6 | 12148 ± 597 | 21313 ± 987
B6 | 28.1 | 1.4 | 101.2 ± 7.1 | 73.1 ± 5.4 | 29115 ± 2336 | 40678 ± 3158
B7 | 26.4 | 1.5 | 78.3 ± 4.5 | 51.8 ± 5.1 | 17180 ± 1455 | 26326 ± 1627
B8 | 11.6 | 9.2 | 13 ± 1.6 | 1.4 ± 0.2 | 516 ± 80 | 4757 ± 618
B9 | 23.2 | 2.4 | 40.5 ± 3.4 | 17.4 ± 1.3 | 7906 ± 694 | 18890 ± 2092
B10 | 9.4 | 1.5 | 29.8 ± 1 | 20.4 ± 1.1 | 8054 ± 482 | 12166 ± 927
B11 | 11.7 | 1.3 | 53.3 ± 3.7 | 41.6 ± 2.1 | 15359 ± 656 | 19794 ± 1475
B12 | 45.4 | 1.8 | 106.6 ± 5.9 | 61.1 ± 4.6 | 22393 ± 1429 | 40016 ± 2785
B13 | 40.3 | 1.4 | 154.1 ± 11.1 | 113.8 ± 9.5 | 40575 ± 2928 | 54681 ± 3030
B14 | 52.4 | 2.2 | 98.2 ± 5 | 45.9 ± 4.2 | 16515 ± 1170 | 36258 ± 1701
B15 | 11.7 | 1.2 | 64 ± 5.2 | 52.3 ± 3.8 | 19998 ± 1682 | 24303 ± 2079
B16 | 11.2 | 1.9 | 24.2 ± 0.9 | 13 ± 0.8 | 5079 ± 248 | 9827 ± 630
B17 | 74.2 | 2.8 | 116.4 ± 5.5 | 42.2 ± 1.7 | 17164 ± 1203 | 47647 ± 3779
B18 | 39.4 | 1.3 | 180.9 ± 15 | 141.5 ± 12 | 50348 ± 3558 | 62820 ± 3401
B19 | 20.1 | 2.3 | 34.5 ± 1.5 | 14.4 ± 1.1 | 4768 ± 480 | 11112 ± 732
B20 | 49.4 | 2.1 | 92.1 ± 7.1 | 42.7 ± 3.3 | 15415 ± 1294 | 32440 ± 2092
B21 | 42.5 | 1.4 | 165.7 ± 9.7 | 123.2 ± 12.1 | 42995 ± 3236 | 59162 ± 3600
